# Results: patent US7291492B2, “Histone deacetylase 9” (The Institute of Cancer Research, priority 2001, dated 2007)
# B1: HDAC9: wild-type histone deacetylase 9, a 1069 amino acid polypeptide, class II histone deacetylase (protein)
# chain: MHSMISSVDVKSEVPVGLEPISPLDLRTDLRMMMPVVDPVVREKQLQQELLLIQQQQQIQKQLLIAEFQKQHENLTRQHQAQLQEHIKLQQELLAIKQQQELLEKEQKLEQQRQEQEVERHRREQQLPPLRGKDRGRERAVASTEVKQKLQEFLLSKSATKDTPTNGKNHSVSRHPKLWYTAAHHTSLDQSSPPLSGTSPSYKYTLPGAQDAKDDFPLRKTASEPNLKVRSRLKQKVAERRSSPLLRRKDGNVVTSFKKRMFEVTESSVSSSSPGSGPSSPNNGPTGSVTENETSVLPPTPHAEQMVSQQRILIHEDSMNLLSLYTSPSLPNITLGLPAVPSQLNASNSLKEKQKCETQTLRQGVPLPGQYGGSIPASSSHPHVTLEGKPPNSSHQALLQHLLLKEQMRQQKLLVAGGVPLHPQSPLATKERISPGIRGTHKLPRHRPLNRTQSAPLPQSTLAQLVIQQQHQQFLEKQKQYQQQIHMNKLLSKSIEQLKQPGSHLEEAEEELQGDQAMQEDRAPSSGNSTRSDSSACVDDTLGQVGAVKVKEEPVDSDEDAQIQEMESGEQAAFMQQPFLEPTHTRALSVRQAPLAAVGMDGLEKHRLVSRTHSSPAASVLPHPAMDRPLQPGSATGIAYDPLMLKHQCVCGNSTTHPEHAGRIQSIWSRLQETGLLNKCERIQGRKASLEEIQLVHSEHHSLLYGTNPLDGQKLDPRILLGDDSQKFFSSLPCGGLGVDSDTIWNELRSSGAARMAVGCVIELASKVASGELKNGFAVVRPPGHHAEESTAMGFCFFNSVAITAKYLRDQLNISKILIVDLDVHHGNGTQQAFYADPSILYISLHRYDEGNFFPGSGAPNEVGTGLGEGYNINIAWTGGLDPPMGDVEYLEAFRTIVKPVAKEFDPDMVLVSAGFDALEGHTPPLGGYKVTAKCFGHLTKQLMTLADGRVVLALEGGHDLTAICDASEACVNALLGNELEPLAEDILHQSPNMNAVISLQKIIEIQSKYWKSVRMVAVPRGCALAGAQLQEETETVSALASLTVDVEQPFAQEDSRTAGEPMEEEPAL
# modifications: left off: a dimerising Fc or GST
# notes: wild-type histone deacetylase 9, a 1069 amino acid polypeptide, class II histone deacetylase
# Test system: histone H4 peptide
# Assay: in-vitro histone deacetylase assay with anti-FLAG immunoprecipitated HDAC, [3H]acetyl-labelled histone H4 peptide
# Format: biochemical
# Conditions: FLAG-tagged HDAC from 293T cells, FIG. 5A
# Description: A. HDAC9 deacetylates histone H4 peptide. 293T cells were transfected with FLAG-tagged HDAC. Whole cell lysates were produced and the HDACs precipitated with anti-FLAG agarose. The beads were assayed for their ability to deacetylate a [^3H]acetyl-labelled peptide corresponding to the N-Terminus of histone H4. Free acetate was extracted and measured by scintillation counting.
# Higher activities of HDAC9 have been detected towards peptide substrates derived from histone H3 than from histone H4 (FIGS. 7A and B).
molecule,measurement,value
B1,histone deacetylase activity relative to HDAC1,about 25%
same,histone deacetylase activity relative to HDACs 4 and 5,~50%
